Numbering of substitutions follows the chain as printed. Numbers in names are those of the source.
T1: human α-CGRP (Homo sapiens, UniProt P06881)
T1 construct: 1-37 (WT); purchased GenScript Corporation or Global Peptide Services
T1 sequence (P06881 83-119 limits assumed): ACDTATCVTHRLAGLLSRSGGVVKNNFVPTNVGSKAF

T2: rat α-CGRP (Rattus norvegicus, UniProt P01256)
T2 construct: rat α (1-37); purchased GenScript Corporation or Global Peptide Services
T2 sequence (P01256 83-119 limits assumed): T1 sequence (P06881 83-119 limits assumed) with A1S, D3N, N25D, K35E

B1: M46: G1 variant; L1 R28N; L2 G50A L56T; H2 E54K A57N S58E H61F; HC-FW3 L99T A100V (antibody, V domains shown)
VH: EVQLVESGGGLVQPGGSLRLSCAASGFTFSNYWISWVRQAPGKGLEWVAEIRSKSDNEATFYAEAVKGRFTISRDNAKNSLYLQMNSLRAEDTAVYYCTVYFDYGLAIQNYWGQGTLVTVSS
VL: EIVLTQSPATLSLSPGERATLSCKASKNVTTYVSWYQQKPGQAPRLLIYAASNRYTGIPARFSGSGSGTDFTLTISSLEPEDFAVYYCSQSYNYPYTFGQGTKLEIK
B2: M63: G1 variant; L1 R28N T30G; L2 G50A; H2 E54K A57N S58T; HC-FW3 L99T A100V (antibody, V domains shown)
VH: B1 VH with E58T, F61H
VL: B1 VL with T30G, T56L
B3: M47: G1 variant; L1 R28N; L2 G50A L56T; H2 E54K A57N S58G; HC-FW3 L99T A100V (antibody, V domains shown)
VH: B1 VH with E58G, F61H
VL: B1 VL
B4: M58: G1 variant; L1 R28N T30D; L2 L56S; H2 E54K A57N S58I H61F; HC-FW3 L99T A100V (antibody, V domains shown)
VH: B1 VH with E58I
VL: B1 VL with T30D, A50G, T56S
B5: M52: G1 variant; L1 R28N; L2 L561; H2 E54K A57N S58A; HC-FW3 L99T A100V (antibody, V domains shown)
VH: B1 VH with E58A, F61H
VL: B1 VL with A50G, T56I
B6: M55: G1 variant; L1 R28N T30A; L2 L56S; H2 E54K A57N S58E E64D; HC-FW3 L99T A100V (antibody, V domains shown)
VH: B1 VH with F61H, E64D
VL: B1 VL with T30A, A50G, T56S
B7: M59: G1 variant; L1 R28N T30D; L2 L56S; H2 E54K A57N S58N H61F; HC-FW3 L99T A100V (antibody, V domains shown)
VH: B1 VH with E58N
VL: B1 VL with T30D, A50G, T56S
B8: M50: G1 variant; L1 R28N; L2 G50A L56T; H2 E54K A57R; HC-FW3 L99T A100V (antibody, V domains shown)
VH: B1 VH with N57R, E58S, F61H
VL: B1 VL
B9: M56: G1 variant; L1 R28N T30D; L2 L56S; H2 E54K A57N H61F; HC-FW3 L99T A100V (antibody, V domains shown)
VH: B1 VH with E58S
VL: B1 VL with T30D, A50G, T56S
B10: M60: G1 variant; L1 R28N T30D; L2 L56S; H2 E54K A57N S58R H61F; HC-FW3 L99T A100V (antibody, V domains shown)
VH: B1 VH with E58R
VL: B1 VL with T30D, A50G, T56S
B11: M57: G1 variant; L1 R28N T30D; L2 L56S; H2 E54K A57N S58E; HC-FW3 L99T A100V (antibody, V domains shown)
VH: B1 VH with F61H
VL: B1 VL with T30D, A50G, T56S
B12: M49: G1 variant; L1 R28N; L2 G50A L56T; H2 E54K A57N S58Y H61F; HC-FW3 L99T A100V (antibody, V domains shown)
VH: B1 VH with E58Y
VL: B1 VL
B13: M62: G1 variant; L1 R28N T30G; L2 A51H L56T; H2 E54K A57N S58E; HC-FW3 L99T A100V (antibody, V domains shown)
VH: B1 VH with F61H
VL: B1 VL with T30G, A50G, A51H
B14: M53: G1 variant; L1 R28N; L2 L561; H2 E54K A57N S58G; HC-FW3 L99T A100V (antibody, V domains shown)
VH: B1 VH with E58G, F61H
VL: B1 VL with A50G, T56I
B15: M61: G1 variant; L1 R28N T30G; L2 A51H; H2 E54Q A57N H61F; HC-FW3 L99T A100V (antibody, V domains shown)
VH: B1 VH with K54Q, E58S
VL: B1 VL with T30G, A50G, A51H, T56L
B16: M54: G1 variant; L1 R28N T30A; L2 G50A; H2 E54K A57N S58P; HC-FW3 L99T A100V (antibody, V domains shown)
VH: B1 VH with E58P, F61H
VL: B1 VL with T30A, T56L
B17: M48: G1 variant; L1 R28N; L2 G50A L56T; H2 E54K A57N S58L; HC-FW3 L99T A100V (antibody, V domains shown)
VH: B1 VH with E58L, F61H
VL: B1 VL
B18: M51: G1 variant; L1 R28N; L2 L561; H2 E54K A57G; HC-FW3 L99T A100V (antibody, V domains shown)
VH: B1 VH with N57G, E58S, F61H
VL: B1 VL with A50G, T56I
B19: M25: G1 variant; L1 R28N; HC-FW3 L99T A100V (antibody, V domains shown)
VH: B1 VH with K54E, N57A, E58S, F61H
VL: B1 VL with A50G, T56L

The molecules below were run against T1, human α-CGRP (assay: Biacore SPR affinity of Fab fragments to N-biotinylated human α-CGRP on SA chip). Settings: 37° C., screening mode except underlined values.
Type: binding
Description: (§1) Affinity determination of the Fabs. Affinities of the anti-CGRP monoclonal antibodies were determined at either 25° C. or 37° C. using the BIACORE3000™ surface plasmon resonance (SPR) system (Biacore, INC, Piscataway N.J.) with the manufacture's own running buffer, HBS-EP (10 mM HEPES pH 7.4, 150 mM NaCl, 3 mM EDTA, 0.005% v/v polysorbate P20). Affinity was determined by capturing N-terminally biotinylated CGRP peptides (custom ordered from GenScript Corporation, New Jersey or Global Peptide Services, Colorado) via pre-immobilized streptavidin on SA chip and measuring binding kinetics of antibody Fab titrated across the CGRP surface. Biotinylated CGRP was diluted into HBS-EP and injected over the chip at a concentration of less than 0.001 mg/ml. Using variable flow time across the individual chip channels, two ranges of antigen density were achieved: <50 response units (RU) for detailed kinetic studies and about 800 RU for concentration studies and screening. […] After each binding cycle, surfaces were regenerated with 25 mM NaOH in 25% v/v ethanol, which was tolerated over hundreds of cycles. Kinetic association rate (kon) and dissociation rate (koff) were obtained simultaneously by fitting the data to a 1:1 Langmuir binding model (Karlsson et al. (1994). Methods Enzymology 6. 99-110) using the BIAevaluation program. Global equilibrium dissociation constants (KD) or “affinities” were calculated from the ratio KD=koff/kon.
(§2) Biacore assay for affinity determination. […] All Biacore assays were conducted in HBS-EP running buffer (10 mM HEPES pH 7.4, 150 mM NaCl, 3 mM EDTA, 0.005% v/v polysorbate P20). CGRP surfaces were prepared by diluting the N-biotinylated CGRP to a concentration of less than 0.001 mg/mL into HBS-EP buffer and injecting it across the SA sensor chip using variable contact times. Low capacity surfaces, corresponding to capture levels <50 response units (RU) were used for high-resolution kinetic studies, whereas high capacity surfaces (about 800 RU of captured CGRP) were used for concentration studies, screening, and solution affinity determinations. […] Samples were typically injected for 1 minute at 100 μL/min and dissociation times of at least 10 minutes were allowed. After each binding cycle, surfaces were regenerated with 25 mM NaOH in 25% v/v ethanol, which was tolerated over hundreds of cycles. An entire titration series (typically generated in duplicate) was fit globally to a 1:1 Langmuir binding model using the BIAevaluation program. This returned a unique pair of association and dissociation kinetic rate constants (respectively, kon and koff) for each binding interaction, whose ratio gave the equilibrium dissociation constant (KD=koff/kon).
(§3) High-resolution analysis of binding interactions with extremely slow off rates. […] The protocol described above was used with the following modifications. The association rate constant (kon) was determined by injecting a 2-fold titration series (in duplicate) spanning 550 nM-1 nM for 30 seconds at 100 μL/min and allowing only a 30 second dissociation phase. The dissociation rate constant (koff) was determined by injecting three concentrations (high, medium, and low) of the same titration series in duplicate for 30 seconds and allowing a 2-hour dissociation phase. The affinity (KD) of each interaction was obtained by combining the kon and koff values obtained in both types of experiments, as shown in Table 4.

Molecule	α-human koff [s⁻¹]
B1	0.000539
B2	0.0015
B3	0.000332
B4	0.00195
B5	0.000281
B6	0.000478
B7	0.000524
B8	0.000406
B9	0.000479
B10	0.000911
B11	0.000322
B12	0.000595
B13	0.000557
B14	0.000374
B15	0.000459
B16	0.00179
B17	0.000842
B18	0.000131

These molecules were tested against T2, rat α-CGRP (assay: Biacore SPR affinity of Fab fragments to N-biotinylated rat α-CGRP on SA chip). Settings: 37° C., screening mode except underlined values.
Type: binding
Description: as §1, §2, §3

Molecule	α-rat koff [s⁻¹]	α-rat koff (1/s)
B1	0.00294	–
B2	0.00265	–
B3	0.00823	–
B4	–	No binding
B5	0.00229	–
B6	0.00585	–
B7	0.0123	–
B8	0.0053	–
B9	0.00935	–
B10	0.0272	–
B11	0.0104	–
B19	0.0014	–
B12	0.0148	–
B13	0.00575	–
B14	0.00191	–
B15	0.00521	–
B16	0.00216	–
B17	0.0343	–
B18	0.00118	–

Source: patent US20190071490A1, “Preventing Post-Ictal Headaches” (Beth Israel Deaconess Medical Center, Inc., priority 2017, published 2019)
